# Test results: patent US20240109965A1 (Ablynx, published 2024)
# Positions count from the first letter of the chain named.
# T1: cynomolgus TCRαβ-zipper protein (cynomolgus)
# T1 construct: also called cyTCR(AEA41865)-zipper; CynoTCRαβ-zipper
# T1 TCR alpha: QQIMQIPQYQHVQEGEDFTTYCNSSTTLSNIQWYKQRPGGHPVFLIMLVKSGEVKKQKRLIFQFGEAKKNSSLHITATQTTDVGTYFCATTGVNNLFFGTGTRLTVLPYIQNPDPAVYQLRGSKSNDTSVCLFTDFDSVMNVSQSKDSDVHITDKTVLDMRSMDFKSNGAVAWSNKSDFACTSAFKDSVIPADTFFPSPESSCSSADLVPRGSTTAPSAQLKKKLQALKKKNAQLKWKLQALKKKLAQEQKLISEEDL
# T1 TCR beta: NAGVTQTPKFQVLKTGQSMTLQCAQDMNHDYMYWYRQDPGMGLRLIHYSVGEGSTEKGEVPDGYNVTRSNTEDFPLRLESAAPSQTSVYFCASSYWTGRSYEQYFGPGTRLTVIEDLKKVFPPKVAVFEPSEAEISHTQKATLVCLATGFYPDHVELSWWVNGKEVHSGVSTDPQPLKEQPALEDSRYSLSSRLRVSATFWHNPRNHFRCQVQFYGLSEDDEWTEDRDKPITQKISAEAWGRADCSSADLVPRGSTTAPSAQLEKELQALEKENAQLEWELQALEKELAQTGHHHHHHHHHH
# B1: T017001022 (bispecific antibody)
# chain: DVQLVESGGGVVQPGGSLRLSCVASGYVHKINFYGWYRQAPGKEREKVAHISIGDQTDYADSAKGRFTISRDESKNTVYLQMNSLRPEDTAAYYCRALSRIWPYDYWGQGTLVTVSSGGGGSGGGSEVQLVESGGGVVQPGGSLRLSCAASGTTLDYYVIGWFRQAPGKEREGVSCISSSDGYTYYADSVKGRFTISRDNAKNTVYLQMNSLRPEDTALYYCATDPYYSSCHPFFADYEYDYWGQGTLVTVSSGGGGSGGGSEVQLVESGGGVVQPGGSLRLSCAASGFTFRSFGMSWVRQAPGKGPEWVSSISGSGSDTLYADSVKGRFTISRDNSKNTLYLQMNSLRPEDTALYYCTIGGSLSRSSQGTLVTVSS
# B2: T017001023 (bispecific antibody)
# chain: B1 chain with D61E, W102Y
# B3: T017001025 (bispecific antibody)
# chain: B1 chain with D61E, W102S
# B4: T017001024 (bispecific antibody)
# chain: B1 chain with D61E, W102T
# B5: T017001029 (bispecific antibody)
# chain: EVQLVESGGGVVQPGGSLRLSCAASGTTLDYYVIGWFRQAPGKEREGVSCISSSDGYTYYADSVKGRFTISRDNAKNTVYLQMNSLRPEDTALYYCATDPYYSSCHPFFADYEYDYWGQGTLVTVSSGGGGSGGGSEVQLVESGGGVVQPGGSLRLSCVASGYVHKINFYGWYRQAPGKEREKVAHISIGDQTDYAESAKGRFTISRDESKNTVYLQMNSLRPEDTAAYYCRALSRITPYDYWGQGTLVTVSSGGGGSGGGSEVQLVESGGGVVQPGGSLRLSCAASGFTFRSFGMSWVRQAPGKGPEWVSSISGSGSDTLYADSVKGRFTISRDNSKNTLYLQMNSLRPEDTALYYCTIGGSLSRSSQGTLVTVSS
# B6: T017001031 (bispecific antibody)
# chain: B5 chain with T238Q
# B7: T017000700 (VHH)
# VHH: EVQLVESGGGVVQPGGSLRLSCVASGYVHKINFYGWYRQAPGKEREKVAHISIGDQTDYADSAKGRFTISRDESKNTVYLQMNSLRPEDTAAYYCRALSRIWPYDYWGQGTLVTVSS
# B8: T017000967 (VHH)
# VHH: B7 VHH with W102Y
# B9: T017000995 (VHH)
# VHH: B7 VHH with D61E, W102Q
# B10: T017000944 (VHH)
# VHH: B7 VHH with D61V
# B11: T017000940 (VHH)
# VHH: B7 VHH with D61R
# B12: T017000979 (VHH)
# VHH: B7 VHH with D61A, W102Y
# B13: T017001001 (VHH)
# VHH: B7 VHH with D61E, W102T
# B14: T017000980 (VHH)
# VHH: B7 VHH with D61Q, W102Y
# B15: T017000951 (VHH)
# VHH: B7 VHH with D61S
# B16: T017000945 (VHH)
# VHH: B7 VHH with D61E
# B17: T017000999 (VHH)
# VHH: B7 VHH with D61E, W102S
# notes: also called T01700999
# B18: T017000977 (VHH)
# VHH: B7 VHH with D61V, W102Y
# B19: T017000976 (VHH)
# VHH: B7 VHH with D61R, W102Y
# B20: T017000981 (VHH)
# VHH: B7 VHH with D61S, W102Y
# B21: T017000949 (VHH)
# VHH: B7 VHH with D61Q
# B22: T017000938 (VHH)
# VHH: B7 VHH with D61P
# B23: T017000978 (VHH)
# VHH: B7 VHH with D61E, W102Y
# notes: also called T01700978
# B24: T017000946 (VHH)
# VHH: B7 VHH with D61A
# Target: human T cell receptor (TCRαβ) on primary human T cells (human)
# Assay: cell-based or functional assay
# human T cell receptor (TCRαβ) on primary human T cells (human), sequence (P0DTU3 134-275, chain 1 of 2): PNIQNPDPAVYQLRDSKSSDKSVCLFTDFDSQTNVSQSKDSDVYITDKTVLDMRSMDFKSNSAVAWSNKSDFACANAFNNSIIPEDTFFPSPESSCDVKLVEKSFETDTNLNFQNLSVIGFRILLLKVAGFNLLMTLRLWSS
# human T cell receptor (TCRαβ) on primary human T cells (human), sequence (P01850 other isoform, or with tags, fused parts or gaps, chain 2 of 2, further chain): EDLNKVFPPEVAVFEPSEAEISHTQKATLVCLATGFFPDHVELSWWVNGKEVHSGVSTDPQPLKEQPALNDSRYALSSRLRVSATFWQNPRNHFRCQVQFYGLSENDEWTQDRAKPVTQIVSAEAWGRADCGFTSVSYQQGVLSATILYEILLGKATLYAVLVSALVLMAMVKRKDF
Binder,"EC50 (M), human T cell mediated MOLM-13 cell killing, Donor #1","EC50 (M), human T cell mediated MOLM-13 cell killing, Donor #2"
B1,1.5e-11 M,1.4e-10 M
B2,2.4e-11 M,1.1e-10 M
B3,6.6e-11 M,3.4e-10 M
B4,–,9.8e-10 M

# Target: T1, cynomolgus TCRαβ-zipper protein
# Assay: SPR Biacore 8K+, multi-cycle kinetics, TCR-zipper immobilized
# Experimental: Binding of purified TCE-CD123-ALB and CD123-TCE-ALB ISVD constructs to human TCRαβ-zipper protein (huTCR(2XN9)-zipper, in-house produced) and cynomolgus TCRαβ-zipper protein (cyTCR(AEA41865)-zipper, in-house produced) was probed by Surface Plasmon Resonance (SPR) (Cytiva, Biacore 8K+). Both targets were immobilized on a CM5 sensor chip using standard amine coupling chemistry. […] Each concentration of the ISVDs was injected for 180s and dissociation was assessed during 600s.
# Data was double referenced by subtracting a reference flow cell (FC) and a blank buffer injection. Affinity constants (ka, kd and KD) were calculated applying the Langmuir 1:1 interaction model using the Biacore Insight Evaluation Software (Cytiva, Version 3.0.12.15655).
row,Kd,Binder
1,9100 nM,B5
2,18000 nM,B6
3,15 nM,B1
4,37 nM,B2
5,780 nM,B3
6,2400 nM,B4

# Target: T1, cynomolgus TCRαβ-zipper protein
# Assay: SPR ProteOn XPR36, multi-cycle kinetics, TCR-zipper immobilized;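 also: monovalent His-tagged ISVD constructs flowed at six concentrations over amine-coupled TCR on a GLC chip, 120 s association, 600 s dissociation, double-referenced, fitted to 1:1 Langmuir model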
# Experimental: Binding of purified, monovalent TCE-FLAG3-HIS6 and TCE-HIS6 ISVD constructs to human TCRαβ-zipper protein (huTCR(2XN9)-zipper, in-house produced) and cynomolgus TCRαβ-zipper protein (cyTCR(AEA41865)-zipper, in-house produced) was probed by Surface Plasmon Resonance (SPR) (Bio-rad Laboratories, Inc., ProteOn XPR36). Both targets were immobilized on a GLC sensor chip (short matrix, normal capacity) using standard amine coupling chemistry. ISVD constructs were injected at 6 different concentrations in a multi-cycle kinetics (MCK) experiment. Each concentration of the ISVDs was injected for 120s and dissociation was assessed during 600s.
# Data was double referenced by subtracting a reference analyte lane and a blank buffer injection. Affinity constants (ka, kd and KD) were calculated applying the Langmuir 1:1 interaction model using the ProteOn Manager 3.1.0 (Bio-rad Laboratories, Inc., Version 3.1.0.6).
Kd,KD ratio cy/huTCR,KD ratio vs ref,koff,kon,Binder
8 nM,–,–,–,–,B7
14 nM,3.1,1.7,0.0028 s⁻¹,200000 M⁻¹ s⁻¹,B8
2000 nM,2,246,0.093 s⁻¹,47000 M⁻¹ s⁻¹,B9
7 nM,3,0.9,0.0019 s⁻¹,280000 M⁻¹ s⁻¹,B10
6.1 nM,3.2,0.8,0.0019 s⁻¹,320000 M⁻¹ s⁻¹,B11
19 nM,3.8,2.3,0.0035 s⁻¹,180000 M⁻¹ s⁻¹,B12
1100 nM,3.1,133,0.034 s⁻¹,32000 M⁻¹ s⁻¹,B13
17 nM,4,2.1,0.0034 s⁻¹,210000 M⁻¹ s⁻¹,B14
7.4 nM,3,0.9,0.002 s⁻¹,260000 M⁻¹ s⁻¹,B15
7.1 nM,3.1,0.9,0.0018 s⁻¹,260000 M⁻¹ s⁻¹,B16
350 nM,2.5,43,0.018 s⁻¹,51000 M⁻¹ s⁻¹,B17
19 nM,4.3,2.4,0.0035 s⁻¹,180000 M⁻¹ s⁻¹,B18
15 nM,3.9,1.9,0.0035 s⁻¹,230000 M⁻¹ s⁻¹,B19
17 nM,3.8,2.1,0.0035 s⁻¹,210000 M⁻¹ s⁻¹,B20
6.8 nM,3.2,0.8,0.0019 s⁻¹,280000 M⁻¹ s⁻¹,B21
6.7 nM,3.2,0.8,0.0019 s⁻¹,280000 M⁻¹ s⁻¹,B22
20 nM,4,2.5,0.0033 s⁻¹,170000 M⁻¹ s⁻¹,B23
7 nM,3.1,0.9,0.0019 s⁻¹,270000 M⁻¹ s⁻¹,B24
